Series [1] concerns CCCCCCCc1[nH]c2ccccc2c(=O)c1O. Briefly: purified protein. The format is biochemical, Mycobacteroides abscessus. Particulars: apparent, co-substrate O2, 50 mM Tris, 2 mM EDTA, 10% PEG 1500, 4% (v/v) DMSO, pH 8.0, 30°C.
A further series has as its target T1, AqdB (His8-MBP-AqdB) (Mycobacteroides abscessus, UniProt B1MFK1).
T1 construct: His8-MBP fusion, pET28b(+), expressed in E. coli Rosetta(DE3) whole cells
Briefly: biotransformation by recombinant E. coli cells, HPLC. The following applies: 20 μM HHQ, LB medium; E. coli Rosetta without aqdB did not convert HHQ. The format is cell-based.

T1 sequence (B1MFK1 whole entry, the tested form may be a part): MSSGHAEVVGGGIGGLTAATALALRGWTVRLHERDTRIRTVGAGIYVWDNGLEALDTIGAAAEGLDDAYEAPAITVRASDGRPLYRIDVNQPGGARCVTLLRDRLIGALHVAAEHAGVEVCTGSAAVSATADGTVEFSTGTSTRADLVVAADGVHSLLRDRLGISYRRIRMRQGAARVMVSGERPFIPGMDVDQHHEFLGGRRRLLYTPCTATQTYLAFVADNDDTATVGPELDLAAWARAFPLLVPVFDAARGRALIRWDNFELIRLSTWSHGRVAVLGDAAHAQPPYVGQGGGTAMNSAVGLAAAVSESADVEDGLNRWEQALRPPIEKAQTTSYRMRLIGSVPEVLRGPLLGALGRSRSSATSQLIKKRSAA

For “AqdC (AqdC^I) (Mycobacteroides abscessus ATCC 19977)”, in series [1], the Km (as a rule, the substrate concentration at which the rate is half of its maximum) worked out at 37.2 ± 9.8 µM; the kcat (in general, the number of substrate molecules converted per active site and unit of time at saturation) was 97.8 ± 19.1 s⁻¹. For `CCCCCCCc1cc(=O)c2ccccc2[nH]1` [HHQ, 2-heptyl-4(1H)-quinolone], the “biotransformation by recombinant E. coli cells, HPLC” value on AqdB (His8-MBP-AqdB) is on record as “E. coli cells producing the His8-MBP-AqdB protein converted HHQ to PQS”.

Regarding `CCCCCCCc1[nH]c2ccccc2c(=O)c1O` [PQS, 2-heptyl-3-hydroxy-4(1H)-quinolone], the “biotransformation by recombinant E. coli cells, HPLC” value at AqdB (His8-MBP-AqdB) is recorded as “E. coli cells producing the His8-MBP-AqdB protein converted HHQ to PQS”.

Values taken from PMC5332414, “Mycobacterium abscessus subsp. abscessus Is Capable of Degrading Pseudomonas aeruginosa Quinolone Signals” (Frontiers in Microbiology, 2017).
